Reference: the nanobody polyreactivity screen of Harvey et al. (2022)

Assay: yeast display, Sf9 membrane polyspecificity reagent, FACS + sequencing; frameworks hold sequencing errors
Outline: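 A nanobody's polyreactivity label depends on the gate it was sorted from. Yeast display cells were stained with 10% biotinylated, detergent-solubilized Sf9 membrane reagent for 1 hour at 4 °C, enriched on streptavidin microbeads and sorted by FACS. The low and high (top ~1%) gates were set on anti-HA fluorescence for expression and streptavidin fluorescence for reagent binding.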

| Sequence | polyreactivity (PSR sort gate) |
| --- | --- |
| QVQLVESGGGLVQAGGSLRLSCAASGSIFFRYTMGWSRQAPGTERELVAAITGSGGSTYYADSVKGRFTISRDNAKNTVYLQMNSLKTEDTAVYYCARPGWGRYEYWGQGTQVTVSS | high polyreactivity |
| QVQLVESGGGLVQAGGSLRLICAASGSTFNTYAMGRYRQAPGKERELVAAITWSGGRTYYADSVKGRFTISRDNAKNTVYLQMNSLKPEDTAVYYCAKGKGPTEYDYWGQGTQVTVSS | high polyreactivity |
| QVQLVESGGGLVQAGGSLRLICAGSGSNFSYYAMGWYRQAPGKERELVAAITWSGGTTSYADSVKGRFTISRDNAKNTVYLQMNSLKPEDSAVNYFARSIYVVSAQYDYWGQGTQVTVSS | low polyreactivity |
| QVQLVESGGGLVQAGGSLRLSCAPSGFIFTRYAMGWYRQAPGKERELVAAISWSGGSTYYADSVKGRFTISRDNAKNTVYLQMNSLKPEDTAVYYCAADGSDSYDYWGQGTQVTVSS | low polyreactivity |
| QVQLVESGGGLVQAGGSLRLSCAASVSIFSSYAMGWYRQAPGKERELVAAISRSGGRTYYADSVKGRFTISRDNAKNTVFLQMNSLKPEDTAVYYCNAYAQVSYGTYDYWGQGTQVTVSS | high polyreactivity |
| QVQLVESGGGLVQAGGSLRLSCAASGRTFIYYAMGWYRQAPRKERELVATIRGSSTRTYYADSVKGRFTISRDNAKNTVYLQMNSLKPEDTAVYYCAARGTSRKYYYWGQGTQVTVSA | high polyreactivity |
| QVQLVESGGGLVEAGGSLRLSCAASGIIFYGYDMGWYREAPGKERELVAGITVSGGTYYADSVKGRFTISRDNAKNTVYLQMNSLKPEDTAVYYSARDQWPYVHGKYAYWGQGTQVTVSS | low polyreactivity |
| QVQLVESGGGLVQAGGSLRLSCAASGSIFSIYAMGWYRQAPGKERELVATIRVSGDRTYYADSVKGRFTISRDNAKNTVYLQMNSLKPEDTAVYYCAADFRGFYSWNFYYWGQGTQVTVSS | high polyreactivity |
| QVQLVESGGGLVQAGGSLRLSCAASGLIFYDNMGWYRQPPGKERELVAAITVSGGSTYYADSVKGRFTISRDNAKNTVYLQMKSLKPEDTAVYYCARELLSPTYQRWYYYWGQGTQVTVSS | low polyreactivity |
| QVQLVESGGGLVQAGGSLRLSCPASGFILYPYAMGWYRQAPGKERELVAAITSRGGRTYYADSVKGRFTISRDNAKNTVYLQMNSLKPEDTAVYYCAAKRTSYYAPLKYYSWGQGTQVTVSS | high polyreactivity |
| QVQLVESGGGLVQGGGSLSLSCAASGITFLNYAMGWYRQAPGKERELVAAITWRGGRTYYADSVKGRFTISRDNEKNTVYLQMNSLKPEDTAVYYCARRPGYALTWRVSGRYDYWGQGTQVTVSS | high polyreactivity |
| QVQLVESGGGLVQAGGSLRLSCAASGRIFRDYAMGWYRQAPGKERELVAAIRSVGNTNYADSVKGRFTISRDNAKNTVYLQMNSLKPEDTAVYYCNRQGSDFSRQAIGDFRFDYWGQGTQVTVSS | low polyreactivity |
| QVQLVESGGGLVQAGGSLRLSCAASGRTFYGYVMGWYRQAPGKERELVAAISSGGNTKYADSVKGRFTISRDNAKNTVYLQMNSLKPEDTAVYYCAAGSSVTPYRYYYWGQGTQVTVSS | high polyreactivity |
| QVQLVESGGGLVQAGGSLRLSCAASGIIFTGYAMGWYRQAPGKERELVAAISRSGGGTYYADSVKGRFTISRDNAKNTVYLQMNSLKPEDTAVDYCNRLRIAASYWQAYDYWGQGTQLTVSS | high polyreactivity |
| QVQLVESVGGLVQAGGSLRLSCAASGSIFDSNAMGWYRQAPGKVRELVASITSSGGSTYYADSVKGRFTISRDNAKKTVYLQMNSLKPEDTAVYYCAAKQAQRRYRQWSTSGYWGQGTQVTVSS | high polyreactivity |
| QVQLVESGGGLVQAGGSLRLSCAASGSIFSGNAMGWYRQAPGTERELVATISWSGGSTNYADSVKGRFTISRDNAKNTVYIQMNSLKPEETSVYYCNAYVAYWGWVYRVDYWRQGTQVTVSS | low polyreactivity |
| QVQLVESGGGLVQAGGSLRLSCAASGSTFGANAMGWYRQAPGKEREFVAAISSGGRTNYADSVKGRFTISRDNAKNTVYLQMNSLKPEDTAVYYCAASFRRWYFYARHEYGYWGQGTQVTVSS | low polyreactivity |
| QVQLVESGGGLVQAGGSLRLSCAASGSTFYVYAMGWYRQAPGKERELVAAISKRGGTTYYADSVKGRFTISRDNAKNTVYLQMNSLKPEDTAVYYCATVSSSRDHDYWGQGTQVTVSS | high polyreactivity |
| QVQLVESGGGLVQAGGCLRLSCAASGRIFYANTMGWYRQAPGIEWELVASMYGAVGTYADSVKGRFTISRDKAKNTVSLQMNSLKPEDTAVYYCNAYLTRPVEEYLWDGYYYWGQGTQVTVSA | low polyreactivity |
| QVQLVESGGGVVQAGGSLRLSCAASGSTSYFNVIGWYRPAPGKERELVAAISWSGGSTYADSVKGRFTISRDNAKNTVYLQMNSLKREDTAVYYCNKDYGYVQLRFSGPGYYWGQGTQVTVSS | low polyreactivity |
| QVQLVESGGGLVQAGGSLRLSCAASGRTFTPYAMGWYRQAPGKERELVATISGGGSTHYADSVKGRFTISRDNAKNTVYIQRNSLKPEDTAVYYCSPSRDTVGRGPIQRDYWGQGTQVTVSS | low polyreactivity |
| QVQLVESGGGLVQAGGSLRLSCAASGNTFYRNAMGWSRQAPGKERELVAAIDYSAGSTYYADSVKGRFTISRDNAKNTVYLQMNSLKPEDTAVYYCAADARTSRGRRYYYWGQGTQVTVSS | low polyreactivity |

| Sequence | polyreactivity (PSR sort gate) |
| --- | --- |
| QVQLEESGGGIVQAGGSLRLRCAAAGRSVYYYAMAWYRQAPGKEREFVADITARGGSTYYADSVKGRFTISRDNAKNSVYLQMNSLKPEDTAVYYCAAYIYVTYYYWGQGTQVTVSS | high polyreactivity |
| QVQLVESVGGLVQAGGSLRLSCAASGRIFSYNAMGWYRQAPGKERELVAAITWRGGNTYYADSVKGRFTISRDNAKNTVYLQMNSLKPEDTAVYYCNAVGYSKYYVRTGREFDYWGQGTQVTVSS | high polyreactivity |
| QVQLVESGGGLVQAGGSLRLSCAASGSIFASYAMGWYRQAPGKERELVAAITRGGRTNYADSVKGRFTISRDNAKNTVYLQMNSLKPEDTAVYYCAKQYALVWRGYIYGYWGQGTQVTVSS | high polyreactivity |
| QVQLVESGGGLVQAGGSLRLSCAASGSIFSRYAMGWYRQAPGKERELVAAINGRGSRTYYADSVKGRFTISRDNEMNTVYLQMNSLKPEDTAVYYCAAGRSRLYGPRYFIYKYNYWGQGTQVTVSS | high polyreactivity |
| QVQLVESGGGLVQAGGSLRLSCAASGSTFFYYAMGWYRQAPGKERELVAAISGGGGDTTYADSVKGRFTISRDNAKNTVYLQMNSLKPEDTAVYYCAAVPGSFGSGIFDYWGQGTQATVSS | low polyreactivity |
| QVQLVESGGGLVQAGGSLRLSCAASGSTFYYNAMGWYRQAPGKERELVARISRSGGSTYADSVKGRFTISRDNAKNTVYLQMNSLIPEDTAVYYCNADAYGTPEFTSYAVRYDYWGQGTQVTVSS | low polyreactivity |
| QVQLVESGGGLVQAGGSLRLSCAASGSTFAWNVMGWYRQAPGKERELVAAISGRGGSTYYADSVKGRFTISRDNAKNTVYLQMNSLKPEDTAVYYCNKVYGRSRDVYDYDYWGQGTQVTVSS | high polyreactivity |
| QVQLVESGGGLVQAGGSLRLSCAASGITFTPYAMGWYRQAPGKERELVAAISWRGGSTYYADSVKGRFTISRDNAKNTVYLQMNSLKPEDTAVYYCAKDGRGYGRYSRYYTGDYWGQGTQVTVST | low polyreactivity |
| QVQLVESGGGLVQAGGSLRLSCAASGLTFDANAMGWYRQAPGKERELVATITSGGSTNYADSVKGRFTISRDNAKNTVYLQMNSLKPEDTAVYYCARGTSTGTYYWYGYWGHGTQVTVSS | low polyreactivity |
| QVQLVESGGGLVQAGGSLRLSCAASGFTFDYNAMGWYRQAPGKERELVAAISNTGDSTYYADSVKGRFTISRDNAKNTVYLQMNSLKPEDTAVYYCAADSLFYDYWEYDYWGQGTQVTVSS | low polyreactivity |
| QVQLVESGGGLVQAGGSLRLSCAASGFIFYYAMGWYRQAPGKERELVAAISSGSSTYADSVKGRFTISRDNAKNTVYLQMNSLKPEDTAVYYCATRYSSWYSNRDYDYWGQGTQVTVSS | low polyreactivity |
| QVQLVESGGGLVQAGGSLRLSCAASGLILHKYAMGGSRQAPGKERELVASINSGANTNYADSVKGRFTISRDNAKNTVYLQMNSLKPEDTAVYYCNADPGFRSGDYGYSSFDYWGQGTQVTVSS | low polyreactivity |
| QVQLVESGGGLVQAGGSLRLSCAASGIIFQFYAMGWYRQAPGKEREFVAAISARSGRTYYADSVKGRFTISRDNAKNTVYLQMNSLKPEDTAVYYCNTAYAYSGRYDYWGQGTQVTVSS | high polyreactivity |
| QLQLVESGGGLVQARGSLRLSCASSGSPFEGYAMGRSRQAPGKERELVARITIGGSTNYADSVKGRFTISRDNAKNSVYLQMNSLKPDDTAVYYCAADYRWGYYFTFYYWGQGTQVTVSY | high polyreactivity |
| QVQLVESGGGLVQAGGSLRLSCAASGSTFWLYVMGWYRQAPGKERELVAAISSGGITKYADSVKGRFTISRDNAKNTVYLQMNSLKPEDTAVYYCAVGVLGYRRVTGYYWGQGTQVTVTS | high polyreactivity |
| QVQLVESGGGLVQAGGSLRLSCAASGRTFPGYAMGWYRQAPGKERELVAGISYRGGSTYYADSVKGRFTISRDNAKNTVYLQMNSLKPEDTAVYYCARDYSRHKGDYWGQGTQVTVSS | low polyreactivity |
| QVQLEESGGRLVQAGGSLRLRCAASGLMYTRYVMGWYRQAPGKERELVAVISSGGSTYYADSVKGRFTISRDNAKNTVYLQMNSLIAEDTAVYYCAAYLRSSHVTYDYWGQGTQVTVSS | high polyreactivity |
| QVQLVESVGGLVQAGGSLRLSCAASGSIFGRYVMGWYRQAPGKERELVAAITSGGTTNYADSVKGRFTISRDNAKHTVYLQMNSLKPEDTAVYSCNADYYSRIVGVRIYDYWGQGTQVTVSS | low polyreactivity |
| QVQLVESGAGLVQAGGSLRLSCAASGRTFYWYVMGWYRQAPGKERELVAAITQTGSSTYYADSVKGRFTISRDYAKNTVYLQMNSLKPEDTAVYYWAAEASSVPGYDYWGQGTQVTVSS | low polyreactivity |
| QVQLVESGGGLVQAGGSLRLSCAASGRTFGWDAMGWYRQAPGKERELVAAINNSGDITYYADSVKGRFTISRDNAKNTVYLQMNSLKPEDTAVYYCAATAGYYGYPSEYDYWGQGTQVTVSS | low polyreactivity |
| QVQLVESGGGLVQAGGSLRLSCAASGRTFGPYAMGWYRQAPGKERELVAAITSSGGSTYYADSVKGRFTISRDNAKNTVYLQMNSLKPEDTAVYYCNNLYWRQSQDYDYWGQGTQVTVSS | low polyreactivity |
